Assay results as given in paper PMC10141581, “Autonomous Synthesis of Functional, Permanently Phosphorylated Proteins for Defining the Interactome of Monomeric 14-3-3ζ” (ACS Central Science, 2023).

Biological target: the molecule itself
Experiment: SEC-MALS; 14-3-3ζ variants alone, injected at 50 μM initial concentration; Superdex 200 10/300 GL; 50 mM Tris pH 7.4, 150 mM NaCl, 0.5 mM TCEP; room temperature; dimer to monomers

B1: 14-3-3ζ S58E (natural protein, human)
chain: MDKNELVQKAKLAEQAERYDDMAACMKSVTEQGAELSNEERNLLSVAYKNVVGARRSEWRVVSSIEQKTEGAEKKQQMAREYREKIETELRDICNDVLSLLEKFLIPNASQAESKVFYLKMKGDYYRYLAEVAAGDDKKGIVDQSQQAYQEAFEISKKEMQPTHPIRLGLALNFSVFYYEILNSPEKACSLAKTAFDEAIAELDTLSEESYKDSTLIMQLLRDNLTLWTS
notes: 14-3-3 protein zeta with Glu at position 58 (ζ-isoform numbering); also called S58E variant; phosphomimetic S58E; source: E. coli, purified
- stoichiometry N: 2
